The data set in a line: self-splicing fitness, log relative to wild type (ln ratio); higher = more splicing; Tetrahymena group I intron in knt gene, E. coli kanamycin selection, DiMSum; sequences stand for … in CUCUCU…GGAGGGAAAAGUUAUCAGGCAUGCACCUGGUAGCUAGUCUUUAAACCAAUAGAUUGCAUCGGUUUAAAAGGCAAGACCGUCAAAUUGCGGGAAAGGGGUCAACAGCCGUUCAGUACCAAGUCUCAGGGGAAACUUUGAGAUGGCCUUGCAAAGGGUAUGGUAAUAAGCUGACGGACAUGGUCCUAACCACGCAGCCAAGUCCUAAGUCAACAGAUCUUCUGUUGAUAUGGAUGCAGUUCACAGACUAAAUGUCGGUCGGGGAAGAUGUAUUCUUCUCAUAAGAUAUAGUCGGACCUCUCCUUAAUGGGAGCUAGCGGAUGAAGUGAUGCAACACUGGAGCCGCUGGGAACUAAUUUGUAUGCGAAAGUAUAUUGAUUAGUUUUGGAGUACUCGUGGUCG
The gist of the method: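 DiMSum derived fitness as the error-weighted combination of fold changes across replicates, kanamycin versus no kanamycin, normalised to wild type. E. coli BL21(DE3) held the library, which randomised all eight P1ex-region intron nucleotides within the knt kanamycin-resistance gene on pET-22b(+). Six replicate transformations grew overnight at 37°C or 30°C on LB agar with or without 25 μg/mL kanamycin, also containing 100 μg/mL carbenicillin, 50 μM IPTG and 0.2% rhamnose, and pooled colonies were amplicon-sequenced on an Illumina HiSeq 2500.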

The results in this text go back to the supplement of paper PMC7877785.

± gives the uncertainty stated by the source.

Turning to UUCGAGCAAUAUUACGAGCG, the “self-splicing fitness (ln)” value runs as follows: (30 °C) -3.41 ± 0.4; (37 °C) -1.47 ± 0.2.

With UUCGAGCAAUAUUACGAUGA, the “self-splicing fitness (ln)” value runs as follows: (30 °C) -0.824 ± 0.12; (37 °C) -0.0637 ± 0.1.

On to UUCGAGCAAUAUUACGCCAC, for which the “self-splicing fitness (ln)” value (37 °C) is -1.4 ± 0.46.

For the sequence UUCGAGCAAUAUUACGCCGG, for the setting “30 °C”, the “self-splicing fitness (ln)” value was -1.98 ± 0.39.

Turning to UUCGAGCAAUAUUACGGAAU, the “self-splicing fitness (ln)” value reads like this: (30 °C) -3.13 ± 0.18; (37 °C) -2.87 ± 0.27.

On to UUCGAGCAAUAUUACGGAGA, for which the “self-splicing fitness (ln)” value is, setting by setting: (30 °C) -1.63 ± 0.22; (37 °C) -1.38 ± 0.22.

On to UUCGAGCAAUAUUACGGGAU, for which the “self-splicing fitness (ln)” value runs as follows: (30 °C) -3.04 ± 0.25; (37 °C) -2.05 ± 0.19.

In the case of UUCGAGCAAUAUUACGGGGC, the “self-splicing fitness (ln)” value is, setting by setting: (30 °C) -2.86 ± 0.27; (37 °C) -1.48 ± 0.4.

As to UUCGAGCAAUAUUACGGUAU, the “self-splicing fitness (ln)” value was -3.95 ± 0.22 (30 °C) and -2.22 ± 0.23 (37 °C).

In the case of UUCGAGCAAUAUUACGGUCA, the “self-splicing fitness (ln)” value runs as follows: (30 °C) -1.71 ± 0.15; (37 °C) -1.26 ± 0.13.

For the sequence UUCGAGCAAUAUUACGGUCG, the “self-splicing fitness (ln)” value (37 °C) was -1.91 ± 0.36.

As for UUCGAGCAAUAUUACGUACU, the “self-splicing fitness (ln)” value is -2.87 ± 0.42 (30 °C) and -2.01 ± 0.36 (37 °C).

For UUCGAGCAAUAUUACGUGAG, the “self-splicing fitness (ln)” value reads like this: (30 °C) -1.12 ± 0.067; (37 °C) -0.0842 ± 0.11.

For UUCGAGCAAUAUUACGUUGU, the “self-splicing fitness (ln)” value is -2.49 ± 0.18 (30 °C) and -2.75 ± 0.24 (37 °C).

In the case of UUCUAGCAAUAUUACGAAAG, where the note is “37 °C”, the “self-splicing fitness (ln)” value is -2.87 ± 0.32.

Take UUCUAGCAAUAUUACGAGUU: the “self-splicing fitness (ln)” value is, setting by setting: (30 °C) -2.55 ± 0.15; (37 °C) -1.92 ± 0.13.

In the case of UUCUAGCAAUAUUACGAUAA, the “self-splicing fitness (ln)” value reads like this: (30 °C) -1.46 ± 0.16; (37 °C) -0.147 ± 0.19.

Consider UUCUAGCAAUAUUACGAUAC, for which the “self-splicing fitness (ln)” value is, setting by setting: (30 °C) -2.08 ± 0.38; (37 °C) -2.64 ± 0.41.

With UUCUAGCAAUAUUACGCCGG, the “self-splicing fitness (ln)” value (37 °C) is -2.05 ± 0.37.

Take UUCUAGCAAUAUUACGCGAU: the “self-splicing fitness (ln)” value (30 °C) was -1.99 ± 0.22.

On to UUCUAGCAAUAUUACGCUCG, for which the “self-splicing fitness (ln)” value was -2.13 ± 0.26 (30 °C) and -2.09 ± 0.49 (37 °C).

With UUCUAGCAAUAUUACGGAAU, the “self-splicing fitness (ln)” value runs as follows: (30 °C) -4.1 ± 0.39; (37 °C) -1.91 ± 0.33.

Turning to UUCUAGCAAUAUUACGGCAA, the “self-splicing fitness (ln)” value was found to be 0.293 ± 0.1 (30 °C) and 0.334 ± 0.11 (37 °C).

UUCUAGCAAUAUUACGGCAC: the “self-splicing fitness (ln)” value (37 °C) is -0.626 ± 0.23.

For the sequence UUCUAGCAAUAUUACGGCCC, the “self-splicing fitness (ln)” value (30 °C) was -1.62 ± 0.41.

As for UUCUAGCAAUAUUACGGCGC, the “self-splicing fitness (ln)” value was -2.84 ± 0.25 (30 °C) and -2.7 ± 0.24 (37 °C).

Take UUCUAGCAAUAUUACGGCUC: the “self-splicing fitness (ln)” value (30 °C) was -1.38 ± 0.14 and the “self-splicing fitness (ln)” value (37 °C) was -0.913 ± 0.2.

With UUCUAGCAAUAUUACGGGAG, the “self-splicing fitness (ln)” value is -2.34 ± 0.19 (30 °C) and -1.47 ± 0.19 (37 °C).

Turning to UUCUAGCAAUAUUACGGUUC, the “self-splicing fitness (ln)” value by setting is: (30 °C) -2.74 ± 0.26; (37 °C) -2.44 ± 0.27.

Consider UUCUAGCAAUAUUACGUAGA, for which the “self-splicing fitness (ln)” value was -3.73 ± 0.29 (30 °C) and -2.19 ± 0.25 (37 °C).

For UUCUAGCAAUAUUACGUGAU, the “self-splicing fitness (ln)” value (30 °C) was -1.89 ± 0.18 and the “self-splicing fitness (ln)” value (37 °C) was -1.34 ± 0.21.

Consider UUGAAGCAAUAUUACGAAGA, for which the “self-splicing fitness (ln)” value runs as follows: (30 °C) -0.989 ± 0.11; (37 °C) -0.181 ± 0.17.

In the case of UUGAAGCAAUAUUACGAAUU, the “self-splicing fitness (ln)” value runs as follows: (30 °C) -2.73 ± 0.33; (37 °C) -1.3 ± 0.31.

With UUGAAGCAAUAUUACGAGCU, the “self-splicing fitness (ln)” value was -1.76 ± 0.16 (30 °C) and -1.02 ± 0.19 (37 °C).

For the sequence UUGAAGCAAUAUUACGAGGC, the “self-splicing fitness (ln)” value is -3.28 ± 0.39 (30 °C) and -1.84 ± 0.47 (37 °C).

Take UUGAAGCAAUAUUACGAUGA: the “self-splicing fitness (ln)” value reads like this: (30 °C) 0.15 ± 0.075; (37 °C) 0.161 ± 0.099.

On to UUGAAGCAAUAUUACGAUUA, for which the “self-splicing fitness (ln)” value reads like this: (30 °C) 0.283 ± 0.096; (37 °C) -0.455 ± 0.096.

For UUGAAGCAAUAUUACGCAGC, the “self-splicing fitness (ln)” value runs as follows: (30 °C) -3.74 ± 0.3; (37 °C) -1.05 ± 0.34.

Take UUGAAGCAAUAUUACGGAUG: the “self-splicing fitness (ln)” value (30 °C) came out at 0.196 ± 0.1 and the “self-splicing fitness (ln)” value (37 °C) was 0.219 ± 0.12.

UUGAAGCAAUAUUACGGCAA: the “self-splicing fitness (ln)” value is 0.615 ± 0.092 (30 °C) and 0.402 ± 0.12 (37 °C).

On to UUGAAGCAAUAUUACGGCAU, for which the “self-splicing fitness (ln)” value by setting is: (30 °C) -0.14 ± 0.06; (37 °C) 1.08 ± 0.08.

For UUGAAGCAAUAUUACGGCCA, the “self-splicing fitness (ln)” value runs as follows: (30 °C) 0.0822 ± 0.12; (37 °C) -0.046 ± 0.13.

In the case of UUGAAGCAAUAUUACGGCGA, the “self-splicing fitness (ln)” value turned out to be 0.203 ± 0.088 (30 °C) and 0.256 ± 0.12 (37 °C).

For the sequence UUGAAGCAAUAUUACGGCUG, the “self-splicing fitness (ln)” value by setting is: (30 °C) 0.342 ± 0.12; (37 °C) 0.572 ± 0.12.

As for UUGAAGCAAUAUUACGGGAU, the “self-splicing fitness (ln)” value was -2.63 ± 0.14 (30 °C) and -1 ± 0.14 (37 °C).

As to UUGAAGCAAUAUUACGGGCA, the “self-splicing fitness (ln)” value is 0.114 ± 0.11 (30 °C) and 0.502 ± 0.13 (37 °C).

As to UUGAAGCAAUAUUACGGGCU, the “self-splicing fitness (ln)” value was -3.02 ± 0.14 (30 °C) and -1.16 ± 0.1 (37 °C).

For the sequence UUGAAGCAAUAUUACGGGUG, the “self-splicing fitness (ln)” value by setting is: (30 °C) -0.54 ± 0.048; (37 °C) -0.446 ± 0.066.

For the sequence UUGAAGCAAUAUUACGUCCG, the “self-splicing fitness (ln)” value by setting is: (30 °C) 0.0359 ± 0.093; (37 °C) 0.4 ± 0.12.

Regarding UUGAAGCAAUAUUACGUCUG, the “self-splicing fitness (ln)” value amounted to 0.509 ± 0.059 (30 °C) and 0.84 ± 0.081 (37 °C).

For the sequence UUGAAGCAAUAUUACGUGCA, the “self-splicing fitness (ln)” value reads like this: (30 °C) -0.222 ± 0.068; (37 °C) 0.447 ± 0.1.

Turning to UUGAAGCAAUAUUACGUUCC, where the note is “37 °C”, the “self-splicing fitness (ln)” value is -2.79 ± 0.35.

Consider UUGCAGCAAUAUUACGAGUA, for which the “self-splicing fitness (ln)” value by setting is: (30 °C) -1.92 ± 0.16; (37 °C) -1.42 ± 0.15.

Turning to UUGCAGCAAUAUUACGAUAC, the “self-splicing fitness (ln)” value (37 °C) was -1.74 ± 0.47.

As to UUGCAGCAAUAUUACGCACC, the “self-splicing fitness (ln)” value (30 °C) was -0.223 ± 0.47.

Consider UUGCAGCAAUAUUACGCGCU, for which the “self-splicing fitness (ln)” value runs as follows: (30 °C) -1.88 ± 0.18; (37 °C) -0.656 ± 0.19.

For UUGCAGCAAUAUUACGCUUG, the “self-splicing fitness (ln)” value was -3.08 ± 0.27 (30 °C) and -1.97 ± 0.29 (37 °C).

As for UUGCAGCAAUAUUACGGCAC, the “self-splicing fitness (ln)” value reads like this: (30 °C) -0.586 ± 0.17; (37 °C) -0.741 ± 0.19.

For the sequence UUGCAGCAAUAUUACGGUCA, the “self-splicing fitness (ln)” value runs as follows: (30 °C) 0.208 ± 0.12; (37 °C) 0.556 ± 0.11.

As to UUGCAGCAAUAUUACGGUUG, the “self-splicing fitness (ln)” value is -3.07 ± 0.15 (30 °C) and -2.04 ± 0.15 (37 °C).

Consider UUGCAGCAAUAUUACGGUUU, for which the “self-splicing fitness (ln)” value was -1.37 ± 0.085 (30 °C) and -0.603 ± 0.085 (37 °C).

In the case of UUGCAGCAAUAUUACGUCCA, the “self-splicing fitness (ln)” value was -0.493 ± 0.1 (30 °C) and 0.00855 ± 0.088 (37 °C).

UUGCAGCAAUAUUACGUCCU: the “self-splicing fitness (ln)” value by setting is: (30 °C) -0.816 ± 0.14; (37 °C) -0.682 ± 0.18.

Turning to UUGCAGCAAUAUUACGUCGU, the “self-splicing fitness (ln)” value was -1.8 ± 0.16 (30 °C) and -1.17 ± 0.2 (37 °C).
